Numbered stars: 1 amine (or outer) side, 2 acyl side, 3 side chain; on linkers, the order of the positions; unused ones are H or OH. Square brackets hold non-standard residues; d marks the D form. Ends that are not written are not given here. * marks the point of attachment. 6988 = 2-pentyl-benzooxazole-5-carboxylic acid, CCCCCc1nc2cc(C(=O)*)ccc2o1; 3421 = 3-Amino-4-hydroxy-benzoic acid, O=C(c1ccc(O[*:3])c(N[*:1])c1)[*:2]; 4703 = 3-(4-bromo-phenyl)-propionic acid, O=C(CCc1ccc(Br)cc1)*; 4734 = (4-butoxy-phenyl)-acetic acid, CCCCOc1ccc(CC(=O)*)cc1; Pro(trans-4-NH2) = O=C([C@@H]1C[C@@H](N[*:3])CN1[*:1])[*:2]; Sni = (S)-nipecotic acid, O=C([C@H]1CCCN([*:1])C1)[*:2]; 1695 = Piperidine-1,2-dicarboxylic acid 1-benzyl ester; Butanoyl(4-(4-MeO-phenyl)) = COc1ccc(CCCC(=O)*)cc1; Phe(3,4-Cl2) = N[C@@H](Cc1ccc(Cl)c(Cl)c1)C(=O)O; Phe(3-CF3) = N[C@@H](Cc1cccc(C(F)(F)F)c1)C(=O)O; Phe(2-CF3) = N[C@@H](Cc1ccccc1C(F)(F)F)C(=O)O; Pbf = Cc1c(C)c(S(=O)(=O)*)c(C)c2c1OC(C)(C)C2; Phe(3-Cl) = N[C@@H](Cc1cccc(Cl)c1)C(=O)O; Butanoyl(4-cHex) = O=C(CCCC1CCCCC1)*; Pentanoyl(5-Ph) = O=C(CCCCc1ccccc1)*; Butanoyl(4-Ph) = O=C(CCCc1ccccc1)*; dDap(Me2) = CN(C)C[C@@H](N)C(=O)O; Hyp = O=C(O)[C@@H]1C[C@@H](O)CN1; NMeF = CN[C@@H](Cc1ccccc1)C(=O)O; tBuAla = CC(C)(C)C[C@H](N)C(=O)O; 3Thi = N[C@@H](Cc1ccsc1)C(=O)O; NMeL = CN[C@@H](CC(C)C)C(=O)O; Octanoyl = CCCCCCCC(=O)*; Api = NC1(C(=O)O)CCNCC1; Che = not defined here; Hexanoyl = CCCCCC(=O)*; leu = not defined here; Occ = octanoic acid
B1: JAL-1595 (peptide)
peptide: Octanoyl-[Sni]FLL[Hyp][tBuAla]DP[Che]
modifications: not fully specified (some residues); printed as Occ-Sni-Phe-leu-Leu-Hyp-Npg-Asp-Pro-Che; reading uncertain
B2: JAL-1596 (peptide)
peptide: Octanoyl-[Sni]FLL[Hyp]IDP[Che]
modifications: not fully specified (some residues); printed as Occ-Sni-Phe-leu-Leu-Hyp-Ile-Asp-Pro-Che; reading uncertain
B3: JAL-1597 (peptide)
peptide: Octanoyl-[Sni][NMeF][dL]L[Hyp][NMeL]DP[Che]
modifications: not fully specified; printed as Occ-Sni-Nmf-leu-Leu-Hyp-Nml-Asp-Pro-Che; reading uncertain
B4: JAL-1598 (peptide)
peptide: Octanoyl-[Sni]F[dL][NMeL][Hyp][NMeL]DP[Che]
modifications: not fully specified; printed as Occ-Sni-Phe-leu-Nml-Hyp-Nml-Asp-Pro-Che; reading uncertain
B5: JAL-1599 (peptide)
peptide: Octanoyl-[Sni][Phe(3,4-Cl2)][dL]L[Hyp][NMeL]DP[Che]
modifications: not fully specified; printed as Occ-Sni-Eaa-leu-Leu-Hyp-Nml-Asp-Pro-Che; reading uncertain
B6: JAL-1603 (peptide)
peptide: [Occ][Sni]F[dDap(Me2)]L[Pro(trans-4-NH2)][NMeL]DP[Che]
modifications: reading uncertain; also: printed as Occ-Sni-Phe-dap(Me2)-Leu-Tap-Nml-Asp-Pro-Che
B7: JAL-1604 (peptide)
peptide: [Occ][Sni]F[dDap(Me2)]L[Hyp][NMeL]DP[Che]
modifications: reading uncertain; also: printed as Occ-Sni-Phe-dap(Me2)-Leu-Hyp-Nml-Asp-Pro-Che
B8: JAL-1616 (peptide)
peptide: Hexanoyl-[3421][Sni]F[dL]L[Hyp][NMeL]DRI-NH2
modifications: not fully specified; printed as Hex-(3421)-Sni-Phe-leu-Leu-Hyp-Nml-Asp-Arg-Ile-NH2
B9: JAL-0697 (peptide)
peptide: XXFGLKLDRI
HELM: PEPTIDE1{[CCCCCCCC(=O)[*:2]].[O=C(C1CCCN([*:1])C1)[*:2]].F.G.L.K.L.D.R.I.[am]}$$$$V2.0
SMILES: CCCCCCCC(=O)N1CCCC(C(=O)N[C@@H](Cc2ccccc2)C(=O)NCC(=O)N[C@@H](CC(C)C)C(=O)N[C@@H](CCCCN)C(=O)N[C@@H](CC(C)C)C(=O)N[C@@H](CC(=O)O)C(=O)N[C@@H](CCCNC(=N)N)C(=O)N[C@H](C(N)=O)[C@@H](C)CC)C1

Biological target: T1, natriuretic peptide receptor-B (human)
T1 chain: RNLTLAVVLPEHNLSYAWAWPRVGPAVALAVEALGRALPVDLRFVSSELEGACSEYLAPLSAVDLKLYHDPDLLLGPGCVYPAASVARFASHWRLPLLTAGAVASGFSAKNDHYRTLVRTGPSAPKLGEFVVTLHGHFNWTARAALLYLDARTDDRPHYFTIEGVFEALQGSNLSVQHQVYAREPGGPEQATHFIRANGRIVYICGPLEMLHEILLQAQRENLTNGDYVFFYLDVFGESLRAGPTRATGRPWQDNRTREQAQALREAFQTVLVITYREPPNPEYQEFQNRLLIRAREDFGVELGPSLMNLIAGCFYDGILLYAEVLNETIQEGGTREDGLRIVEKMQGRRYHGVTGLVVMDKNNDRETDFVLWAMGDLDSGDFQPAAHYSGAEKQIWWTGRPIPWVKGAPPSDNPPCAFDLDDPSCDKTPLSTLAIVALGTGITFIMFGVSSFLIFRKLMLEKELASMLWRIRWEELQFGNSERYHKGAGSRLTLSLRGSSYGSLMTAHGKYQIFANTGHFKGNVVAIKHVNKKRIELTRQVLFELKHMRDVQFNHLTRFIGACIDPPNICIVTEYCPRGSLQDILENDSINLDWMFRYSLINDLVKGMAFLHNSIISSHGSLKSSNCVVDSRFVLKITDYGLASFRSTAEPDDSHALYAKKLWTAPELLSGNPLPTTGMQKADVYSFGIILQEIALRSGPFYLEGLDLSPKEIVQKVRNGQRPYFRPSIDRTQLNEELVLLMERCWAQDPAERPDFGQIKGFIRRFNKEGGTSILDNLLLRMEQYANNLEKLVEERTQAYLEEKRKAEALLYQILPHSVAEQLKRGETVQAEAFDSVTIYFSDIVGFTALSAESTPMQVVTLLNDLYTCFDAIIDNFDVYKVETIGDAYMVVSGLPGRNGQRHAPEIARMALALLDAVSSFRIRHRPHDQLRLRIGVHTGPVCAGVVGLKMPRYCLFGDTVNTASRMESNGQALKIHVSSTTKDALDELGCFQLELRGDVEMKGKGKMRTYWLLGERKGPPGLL
Assay: cell-based or functional assay

| EC50 group, cGMP in GTM-3 cells [µM] | Binder |
| --- | --- |
| ≤ 1 | B1 |
| ≤ 15 | {Butanoyl(4-cHex)}-[dP]FGLKLDRI-NH2 [JAL-0695] |
| ≤ 5 | B2 |
| ≤ 1 | B3 |
| ≤ 15 | B4 |
| ≤ 1 | B5 |
| ≤ 5 | [Occ][Sni]FGL[Hyp][NMeL]DP[Che] (reading uncertain; also: printed as Occ-Sni-Phe-Gly-Leu-Hyp-Nml-Asp-Pro-Che) [JAL-1600] |
| ≤ 5 | [Occ][Sni]F[Api]L[Hyp][NMeL]DP[Che] (reading uncertain; also: printed as Occ-Sni-Phe-Apc-Leu-Hyp-Nml-Asp-Pro-Che) [JAL-1601] |
| ≤ 1 | [Occ][Sni]F[Api]L[Pro(trans-4-NH2)][NMeL]DP[Che] (reading uncertain; also: printed as Occ-Sni-Phe-Apc-Leu-Tap-Nml-Asp-Pro-Che) [JAL-1602] |
| ≤ 1 | B6 |
| ≤ 1 | B7 |
| ≤ 1 | {Butanoyl(4-Ph)}-[Sni]F[dL]L[Hyp][NMeL]DRI-NH2 [JAL-1605] |
| ≤ 15 | {Pentanoyl(5-Ph)}-[dP]FGLKLDRI-NH2 [JAL-0696] |
| ≤ 1 | {Pentanoyl(5-Ph)}-[Sni]F[dL]L[Hyp][NMeL]DRI-NH2 [JAL-1606] |
| ≤ 15 | {Butanoyl(4-(4-MeO-phenyl))}-[Sni]F[dL]L[Hyp][NMeL]DRI-NH2 [JAL-1607] |
| ≤ 5 | 4734-[Sni]F[dL]L[Hyp][NMeL]DRI-NH2 [JAL-1609] |
| ≤ 5 | 4703-[Sni]F[dL]L[Hyp][NMeL]DRI-NH2 [JAL-1612] |
| ≤ 15 | 6988-[Sni]F[dL]L[Hyp][NMeL]DRI-NH2 [JAL-1615] |
| ≤ 5 | B8 |
| ≤ 15 | 1695-[Sni]F[dL]L[Hyp][NMeL]DRI-NH2 (not fully specified; printed as 1695-Sni-Phe-leu-Leu-Hyp-Nml-Asp-Arg-Ile-NH2) [JAL-1617] |
| ≤ 1 | Octanoyl-[Sni][Phe(3-Cl)][dL]L[Hyp][NMeL]DRI-NH2 (not fully specified; printed as Occ-Sni-Mcf-leu-Leu-Hyp-Nml-Asp-Arg-Ile-NH2) [JAL-1618] |
| ≤ 1 | [Occ][Sni][Pbf][leu]L[Hyp][NMeL]DRI-NH2 (reading uncertain; also: printed as Occ-Sni-Pbf-leu-Leu-Hyp-Nml-Asp-Arg-Ile-NH2) [JAL-1619] |
| ≤ 1 | [Occ][Sni][3Thi][leu]L[Hyp][NMeL]DRI-NH2 (reading uncertain; also: printed as Occ-Sni-Thk-leu-Leu-Hyp-Nml-Asp-Arg-Ile-NH2) [JAL-1620] |
| ≤ 5 | B9 |
| ≤ 1 | [Occ][Sni][Phe(3-CF3)][leu]L[Hyp][NMeL]DRI-NH2 (reading uncertain; also: printed as Occ-Sni-Mtf-leu-Leu-Hyp-Nml-Asp-Arg-Ile-NH2) [JAL-1621] |
| ≤ 15 | [Occ][Sni][Phe(2-CF3)][leu]L[Hyp][NMeL]DRI-NH2 (reading uncertain; also: printed as Occ-Sni-Otf-leu-Leu-Hyp-Nml-Asp-Arg-Ile-NH2) [JAL-1622] |

Reference: patent publication US9187525B2, “Methods of treating ophthalmic diseases using NPR-B agonists” (Shire Orphan Therapies GmbH, dated 2015)
